Assay [1] addresses T1, CD19 expressed on the cell surface (UniProt P15391 20-556).
T1 construct: whole, on cells; also called HEK293-CD19 cells; CD19 on Daudi cells
T1 sequence (looked up): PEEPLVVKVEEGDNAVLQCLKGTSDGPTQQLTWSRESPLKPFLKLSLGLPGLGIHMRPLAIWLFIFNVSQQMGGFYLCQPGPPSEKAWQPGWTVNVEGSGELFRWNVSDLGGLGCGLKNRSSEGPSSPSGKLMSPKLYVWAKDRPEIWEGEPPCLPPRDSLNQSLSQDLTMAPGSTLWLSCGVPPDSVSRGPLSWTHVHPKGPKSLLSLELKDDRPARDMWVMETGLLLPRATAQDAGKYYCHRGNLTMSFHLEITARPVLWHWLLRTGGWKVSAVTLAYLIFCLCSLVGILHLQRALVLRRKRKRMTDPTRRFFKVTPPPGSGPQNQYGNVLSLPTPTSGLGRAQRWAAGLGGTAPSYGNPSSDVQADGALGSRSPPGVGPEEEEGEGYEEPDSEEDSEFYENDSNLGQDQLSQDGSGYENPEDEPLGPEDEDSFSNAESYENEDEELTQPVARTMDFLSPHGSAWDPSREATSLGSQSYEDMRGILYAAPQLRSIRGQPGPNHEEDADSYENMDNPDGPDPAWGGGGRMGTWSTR
Put plainly: flow cytometry on HEK293-CD19 cells, anti-Fc detection.

Assay [2] deals with T2, recombinant CD19-His protein (human, UniProt P15391 20-291).
T2 construct: Immobilized on the Octet biosensor; also called Human CD19
T2 sequence (looked up): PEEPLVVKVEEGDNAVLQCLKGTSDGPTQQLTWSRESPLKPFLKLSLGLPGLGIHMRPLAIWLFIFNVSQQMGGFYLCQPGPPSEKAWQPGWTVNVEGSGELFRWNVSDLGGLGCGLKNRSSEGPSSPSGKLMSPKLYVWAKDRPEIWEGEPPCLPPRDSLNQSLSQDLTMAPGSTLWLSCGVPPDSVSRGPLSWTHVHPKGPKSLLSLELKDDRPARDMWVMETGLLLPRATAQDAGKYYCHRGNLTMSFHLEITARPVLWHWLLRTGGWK
Briefly: Octet (ForteBio) BLI, recombinant CD19-His immobilized on biosensor. The source says:
A heterodimer lacking CD19scFv was used as a negative control.
In general terms: Biolayer interferometry detects binding as a change in optical thickness at a sensor tip.

For assay [3], the target named is T1, CD19 expressed on the cell surface. Put plainly: flow cytometry on Daudi cells; Daudi cells (CD19+), flow cytometry. On the technique in general: In flow cytometry, cells or beads pass a laser one at a time.

B1: BTN2A1/3A1-Fc-CD19scFv GADLEN protein (heterodimer with charged polarized linkers) (Fc fusion)
chain 1: QFIVVGPTDPILATVGENTTLRCHLSPEKNAEDMEVRWFRSQFSPAVFVYKGGRERTEEQMEEYRGRTTFVSKDISRGSVALVIHNITAQENGTYRCYFQEGRSYDEAILHLVVAGLGSKPLISMRGHEDGGIRLECISRGWYPKPLTVWRDPYGGVAPALKEVSMPDADGLFMVTTAVIIRDKSVRNMSCSINNTLLGQKKESVIFIPESFMPSVSPCAGSGSRKGGKRGSKYGPPCPPCPAPEFLGGPSVFLFPPKPKDQLMISRTPEVTCVVVDVSQEDPEVQFNWYVDGVEVHNAKTKPREEQFNSTYRVVSVLTVLHQDWLSGKEYKCKVSSKGLPSSIEKTISNATGQPREPQVYTLPPSQEEMTKNQVSLTCLVKGFYPSDIAVEWESNGQPENNYKTTPPVLDSDGSFFLYSRLTVDKSRWQEGNVFSCSVLHEALHNHYTQKSLSLSLGKDEGGEDGSDIQMTQTTSSLSASLGDRVTISCRASQDISKYLNWYQQKPDGTVKLLIYHTSRLHSGVPSRFSGSGSGTDYSLTISNLEQEDIATYFCQQGNTLPYTFGGGTKLEITGGGSGGGSGGGSEVKLQESGPGLVAPSQSLSVTCTVSGVSLPDYGVSWIRQPPRKGLEWLGVIWGSETTYYNSALKSRLTIIKDNSKSQVFLKMNSLQTDDTAIYYCAKHYYYGGSYAMDYWGQGTSVTVSS
chain 2: not shown
notes: The residue ranges were counted from the printed parts; also called BTN2A1/3A1-Fc-CD19scFv heterodimeric protein; human BTN2A1/3A1-Fc-CD19scFv GADLEN protein
For B1, the EC50 in assay [1] came out at 0.89 nM; in assay [3], 5 nM. Besides, in assay [2], the Kd was determined as 13.8 nM.

A word on the EC50: it is the midpoint of the concentration-response curve. One may read the Kd as a measure of binding affinity in units of concentration.

The record behind these values is US20230416333A1 (SHATTUCK LABS, published 2023).
